B1: ERLEC1 (protein)
chain: LPQLSDDIPFRVNWPGTEFSLPTTGVLYKEDNYVIMTTAHKEKYKCILPLVTSGDEEEEKDYKGPNPRELLEPLFKQSSCSYRIESYWTYEVCHGKHIRQYHEEKETGQKINIHEYYLGNMLAKNLLFEKEREAEEKEKSNEIPTKNIEGQMTPYYPVGMGNGTPCSLKQNRPRSSTVMYICHPESKHEILSVAEVTTCEYEVVILTPLLCSHPKYRFRASPVNDIFCQSLPGSPFKPLTLRQLEQQEEILRVPFRRNKEEDLQSTKEERFPAIHKSIAIGSQPVLTVGTTHISKLTDDQLIKEFLSGSYCFRGGVGWWKYEFCYGKHVHQYHEDKDSGKTSVVVGTWNQEEHIEWAKKNTARAYHLQDDGTQTVRCKESDSPHAVTVYMLEPHSCQYILGVESPVICKILDTADENGLLSLPN
B2: SYNPO (protein, UniProt Q8N3V7 1-929, looked up)
Synaptopodin: MLGPHLPPPPLAPSEGRPTPCAFQIPDGSYRCLALEAEESSGEEGLQGEVGPTDLEEDEGVSRSGDDSACRVTQGTPQLPKALGIQPPSCSREEQGASQHDDRASQDWDVVKAGQMMTASPSPGPGPRVAQKPALGRSTSLTEKDLKEAKARSQQIAAQLTTPPSSNSRGVQLFNRRRQRVNEFTLESHGQRGQKPSQESLRVLPSSLPGHAPGLSLSSTSLPEPGPPRHPSPQSPDRGVPGHSMEGYSEEASLLRHLEKVASEEEEVPLVVYLKENAALLTANGLHLSQNREAQQSSPAPPPAEVHSPAADVNQNLASPSATLTTPTSNSSHNPPATDVNQNPPATVVPQSLPLSSIQQNSSEAQLPSNGTGPASKPSTLCADGQPQAPAEEVRCSTLLIDKVSTPATTTSTFSREATLIPSSRPPASDFMSSSLLIDIQPNTLVVSADQEMSGRAAATTPTKVYSEVHFTLAKPPSVVNRTARPFGIQAPGGTSQMERSPMLERRHFGEKAPAPQPPSLPDRSPRPQRHIMSRSPMVERRMMGQRSPASERRPLGNFTAPPTYTETLSTAPLASWVRSPPSYSVLYPSSDPKSSHLKGQAVPASKTGILEESMARRGSRKSMFTFVEKPKVTPNPDLLDLVQTADEKRRQRDQGEVGVEEEPFALGAEASNFQQEPAPRDRASPAAAEEVVPEWASCLKSPRIQAKPKPKPNQNLSEASGKGAELYARRQSRMEKYVIESSSHTPELARCPSPTMSLPSSWKYPTNAPGAFRVASRSPARTPPASLYHGYLPENGVLRPEPTKQPPYQLRPSLFVLSPIKEPAKVSPRAASPAKPSSLDLVPNLPKGALPPSPALPRPSRSSPGLYTSPGQDSLQPTAVSPPYGGDISPVSPSRAWSPRAKQAPRPSFSTRNAGIEAQVWKPSFCFK
B3: SERPINB3 (protein)
chain: MNSLSEANTKFMFDLFQQFRKSKENNIFYSPISITSALGMVLLGAKDNTAQQIKKVLHFDQVTENTTGKAATYHVDRSGNVHHQFQKLLTEFNKSTDAYELKIANKLFGEKTYLFLQEYLDAIKKFYQTSVESVDFANAPEESRKKINSWVESQTNEKIKNLIPEGNIGSNTTLVLVNAIYFKGQWEKKFNKEDTKEEKFWPNKNTYKSIQMMRQYTSFHFASLEDVQAKVLEIPYKGKDLSMIVLLPNEIDGLQKLEEKLTAEKLMEWTSLQNMRETRVDLHLPRFKVEESYDLKDTLRTMGMVDIFNGDADLSGMTGSRGLVLSGVLHKAFVEVTEEGAEAAAATAVVGFGSSPTSTNEEFHCNHPFLFFIRQNKTNSILFYGRFSSP
B4: TGM1 (protein)
chain: MMDGPRSDVGRWGGNPLQPPTTPSPEPEPEPDGRSRRGGGRSFWARCCGCCSCRNAADDDWGPEPSDSRGRGSSSGTRRPGSRGSDSRRPVSRGSGVNAAGDGTIREGMLVVNGVDLLSSRSDQNRREHHTDEYEYDELIVRRGQPFHMLLLLSRTYESSDRITLELLIGNNPEVGKGTHVIIPVGKGGSGGWKAQVVKASGQNLNLRVHTSPNAIIGKFQFTVRTQSDAGEFQLPFDPRNEIYILFNPWCPEDIVYVDHEDWRQEYVLNESGRIYYGTEAQIGERTWNYGQFDHGVLDACLYILDRRGMPYGGRGDPVNVSRVISAMVNSLDDNGVLIGNWSGDYSRGTNPSAWVGSVEILLSYLRTGYSVPYGQCWVFAGVTTTVLRCLGLATRTVTNFNSAHDTDTSLTMDIYFDENMKPLEHLNHDSVWNFHVWNDCWMKRPDLPSGFDGWQVVDATPQETSSGIFCCGPCSVESIKNGLVYMKYDTPFIFAEVNSDKVYWQRQDDGSFKIVYVEEKAIGTLIVTKAISSNMREDITYLYKHPEGSDAERKAVETAAAHGSKPNVYANRGSAEDVAMQVEAQDAVMGQDLMVSVMLINHSSSRRTVKLHLYLSVTFYTGVSGTIFKETKKEVELAPGASDRVTMPVAYKEYRPHLVDQGAMLLNVSGHVKESGQVLAKQHTFRLRTPDLSLTLLGAAVVGQECEVQIVFKNPLPVTLTNVVFRLEGSGLQRPKILNVGDIGGNETVTLRQSFVPVRPGPRQLIASLDSPQLSQVHGVIQVDVAPAPGDGGFFSDAGGDSHLGETIPMASRGGA
B5: PSMA3 (protein)
chain: SSIGTGYDLSASTFSPDGRVFQVEYAMKAVENSSTAIGIRCKDGVVFGVEKLVLSKLYEEGSNKRLFNVDRHVGMAVAGLLADARSLADIAREEASNFRSNFGYNIPLKHLADRVAMYVHAYTLYSAVRPFGCSFMLGSYSVNDGAQLYMIDPSGVSYGYWGCAIGKARQAAKTEIEKLQMKEMTCRDIVKEVAKIIYIVHDEVKDKAFELELSWVGELTNGRHEIVPKDIREEAEKYAKESLKEEDESDDDNM
B6: LUC7L3 (protein, UniProt O95232 1-432, looked up)
Luc7-like protein 3: MISAAQLLDELMGRDRNLAPDEKRSNVRWDHESVCKYYLCGFCPAELFTNTRSDLGPCEKIHDENLRKQYEKSSRFMKVGYERDFLRYLQSLLAEVERRIRRGHARLALSQNQQSSGAAGPTGKNEEKIQVLTDKIDVLLQQIEELGSEGKVEEAQGMMKLVEQLKEERELLRSTTSTIESFAAQEKQMEVCEVCGAFLIVGDAQSRVDDHLMGKQHMGYAKIKATVEELKEKLRKRTEEPDRDERLKKEKQEREEREKEREREREERERKRRREEEEREKERARDRERRKRSRSRSRHSSRTSDRRCSRSRDHKRSRSRERRRSRSRDRRRSRSHDRSERKHRSRSRDRRRSKSRDRKSYKHRSKSRDREQDRKSKEKEKRGSDDKKSSVKSGSREKQSEDTNTESKESDTKNEVNGTSEDIKSEGDTQSN
B7: CALML5 (protein)
chain: AGELTPEEEAQYKKAFSAVDTDGNGTINAQELGAALKATGKNLSEAQLRKLISEVDSDGDGEISFQEFLTAAKKARAGLEDLQVAFRAFDQDGDGHITVDELRRAMAGLGQPLPQEELDAMIREADVDQDGRVNYEEFARMLAQE
B8: PURA (protein)
chain: ADRDSGSEQGGAALGSGGSLGHPGSGSGSGGGGGGGGGGGGSGGGGGGAPGGLQHETQELASKRVDIQNKRFYLDVKQNAKGRFLKIAEVGAGGNKSRLTLSMSVAVEFRDYLGDFIEHYAQLGPSQPPDLAQAQDEPRRALKSEFLVRENRKYYMDLKENQRGRFLRIRQTVNRGPGLGSTQGQTIALPAQGLIEFRDALAKLIDDYGVEEEPAELPEGTSLTVDNKRFFFDVGSNKYGVFMRVSEVKPTYRNSITVPYKVWAKFGHTFCKYSEEMKKIQEKQREKRAACEQLHQQQQQQQEETAAATLLLQGEEEGEED

Target: T1, B3GNT2 (Homo sapiens, UniProt Q9NY97)
T1 construct: The respective ORFs of candidate genes [CD274 (NM_014143), MCL1 (NM_021960), JUNB (NM_002229), and B3GNT2 (NM_006577)] were synthesized; expressed in transfected cells; host or cells: A375 melanoma cells (lentiviral ORF overexpression)
T1 sequence (Q9NY97 1-397): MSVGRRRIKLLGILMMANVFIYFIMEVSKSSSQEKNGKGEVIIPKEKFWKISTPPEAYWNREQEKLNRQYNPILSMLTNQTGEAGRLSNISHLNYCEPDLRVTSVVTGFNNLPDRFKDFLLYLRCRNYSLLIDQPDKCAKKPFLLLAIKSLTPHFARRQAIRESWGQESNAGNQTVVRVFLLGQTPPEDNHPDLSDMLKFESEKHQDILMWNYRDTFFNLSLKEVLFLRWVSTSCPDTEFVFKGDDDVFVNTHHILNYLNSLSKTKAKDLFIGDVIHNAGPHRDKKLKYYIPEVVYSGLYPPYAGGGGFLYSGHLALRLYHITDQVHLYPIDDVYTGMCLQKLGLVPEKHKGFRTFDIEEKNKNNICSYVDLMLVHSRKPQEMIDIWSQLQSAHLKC
Experiment: Co-IP of FLAG-tagged B3GNT2 followed by mass spectrometry
Type: cell-based
Set-up: C-term IgG / C-term flag: unit not given here
Method in brief: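 Co-purifying proteins were identified by fractionated nano-LC–MS/MS on an Orbitrap Elite, run data-dependent. Beforehand, lysates in 1% Triton X-100/HEPES buffer were incubated overnight at 4° C with anti-FLAG or […] and pulled down on Protein A/G magnetic beads for 4 h. Duplicate biological replicates.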

[1] = Co-IP followed by mass spectrometry of B3GNT2, C-term tag, FLAG pull-down
[2] = Co-IP followed by mass spectrometry of B3GNT2, C-term tag, IgG pull-down
[3] = Co-IP followed by mass spectrometry of B3GNT2, N-term tag, FLAG pull-down
[4] = Co-IP followed by mass spectrometry of B3GNT2, N-term tag, IgG pull-down

C-term flag (Co-IP with FLAG antibody, C-terminally FLAG-tagged B3GNT2, mass spectrometry count, unit not given) | N-term FLAG (Co-IP with FLAG antibody, N-terminally FLAG-tagged B3GNT2, mass spectrometry count, unit not given) | C-term IgG (Co-IP with IgG control antibody, C-terminally FLAG-tagged B3GNT2, mass spectrometry count, unit not given) | N-term IgG (Co-IP with IgG control antibody, N-terminally FLAG-tagged B3GNT2, mass spectrometry count, unit not given) | C-term flag [1] | C-term IgG [2] | N-term FLAG [3] | N-term IgG [4] | Molecule
3 | 0 | 0 | 0 |  |  |  |  | B1
 |  |  |  | 7 | 4 | 4 | 4 | B2
 |  |  |  | 9 | 2 | 10 | 3 | B3
 |  |  |  | 8 | 10 | 17 | 9 | B4
 |  |  |  | 0 | 0 | 4 | 0 | B5
 |  |  |  | 3 | 3 | 4 | 2 | B6
 |  |  |  | 4 | 0 | 0 | 0 | B7
 |  |  |  | 3 | 0 | 0 | 2 | B8

Source: patent publication US20240261333A1, “NOVEL TARGETS FOR ENHANCING ANTI-TUMOR IMMUNITY” (THE BROAD INSTITUTE, INC., priority 2021, published 2024)
